Data: patent publication US7371828
Where a chain is given by its changes, count along the chain named. Names and notes keep the numbering of the source.

T1: MBP from bovine brain (Sigma), P02687
T1 chain: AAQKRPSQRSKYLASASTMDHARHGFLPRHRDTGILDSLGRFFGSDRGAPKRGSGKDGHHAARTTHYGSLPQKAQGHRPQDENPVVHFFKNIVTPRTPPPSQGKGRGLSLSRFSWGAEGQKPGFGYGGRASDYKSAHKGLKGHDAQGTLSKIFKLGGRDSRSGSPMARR

B1: human ERK5 (hERK5) wild type protein (protein)
chain: MSSPPPGGSGFYRQEVTKTAWEVRAVYRDLQPVGSGAYGAVCSAVDGRTGAKVAIKKLYRPFGSELFAKLAYRELRLLKHMRHENVIGLLDVFTPDETLDDFTDFYLVMPFMGTDLGKLMKHEKLGEDRIQFLVYQMMKGLRYIHAAGIIHRDLKPGNLAVNEDCELKILDFGLARQADSEMTGYVVTRWYRAPEVILNWIAYTQTVDIWSVGCIMAEMITGKTLFKGSDHLDQLKEIMKVTGTPPAEFVQRLQSDEAKNYMKGLPELEKKDFASILTNASPLAVNLLEKMLVLDADIRLTAGEFLSHPYFESLHDTEDEPQVQKYDDSFDYFDRTLDEWKPCYLQRGAQLQASPAAGGQGLQGDASVKISGLRGGSEDHLHLPPERGLSLPP
B2: hERK5 Y185F mutant (protein)
chain: B1 chain with Y185F

Molecular target: T1, MBP from bovine brain (Sigma), P02687

Protein	MBP kinase activity (32P incorporation in MBP-containing polyacrylamide gel)	MBP phosphorylation assay
B1	A predominant signal is observed at 56 kD; A weaker signal at the position of the 44/46 kD bands	–
B2	the lack of ^32P incorporation in lanes 5 and 6	this mutant is indeed kinase negative
